Laboratory results as given in US20090105152A1.
One block for each binder: values may come before it. Square brackets hold non-standard residues; d marks the D form. Phe(βS-OH) = N[C@H](C(=O)O)[C@@H](O)c1ccccc1; Arg(Me) = CNC(=N)NCCC[C@H](N)C(=O)O; Dap(CONH2) = NC(=O)NC[C@H](N)C(=O)O; cisHyp = O=C(O)[C@@H]1C[C@H](O)CN1; Hyp = O=C(O)[C@@H]1C[C@@H](O)CN1; Pip = O=C(O)[C@@H]1CCCCN1; NMeA = CN[C@@H](C)C(=O)O; Thz = O=C(O)[C@@H]1CSCN1; dNMeA = CN[C@H](C)C(=O)O; Nva = CCC[C@H](N)C(=O)O; azaGly = NNC(=O)O; Sar = CNCC(=O)O

Biological target: human OT7T175 (metastin receptor) (human) (UniProt Q969F8)
Sequence (Q969F8 whole entry L364H): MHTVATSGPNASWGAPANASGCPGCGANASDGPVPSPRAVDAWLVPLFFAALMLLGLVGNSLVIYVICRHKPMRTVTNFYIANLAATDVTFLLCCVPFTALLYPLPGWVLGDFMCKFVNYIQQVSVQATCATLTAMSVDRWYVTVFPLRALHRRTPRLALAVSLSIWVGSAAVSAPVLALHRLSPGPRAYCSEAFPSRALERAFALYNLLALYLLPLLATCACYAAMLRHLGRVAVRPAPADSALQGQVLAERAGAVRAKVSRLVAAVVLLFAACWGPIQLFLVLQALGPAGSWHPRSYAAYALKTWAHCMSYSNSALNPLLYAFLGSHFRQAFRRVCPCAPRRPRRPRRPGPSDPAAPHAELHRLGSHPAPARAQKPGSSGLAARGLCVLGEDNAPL
Assay: cell-based or functional assay

intracellular Ca ion level-increasing activity [specific activity to Metastin (1-54)] (relative to Metastin (1-54)): 1.1
B2: des(1-2)-3-(p-Hydroxyphenyl)propionyl-[Hyp3,Thr5,AzaGly7,Arg(Me)9,Trp10]MS10 (peptide)
peptide: {3‑(p-hydroxyphenyl)propionyl}-[Hyp]NTF[azaGly]L[Arg(Me)]W-NH2

intracellular Ca ion level-increasing activity [specific activity to Metastin (1-54)] (relative to Metastin (1-54)): 0.6
B3: des(1)-Ac-[D-Tyr2,cisHyp3,Thr5,AzaGly7,Arg(Me)9,Trp10]MS10 (peptide)
peptide: Ac-[dY][cisHyp]NTF[azaGly]L[Arg(Me)]W-NH2

intracellular Ca ion level-increasing activity [specific activity to Metastin (1-54)] (relative to Metastin (1-54)): 8.8
B7: des(1)-Ac-[D-Tyr2,Sar3,Thr5,AzaGly7,Arg(Me)9,Trp10]MS10 (peptide)
peptide: Ac-[dY][Sar]NTF[azaGly]L[Arg(Me)]W-NH2
SMILES: CNC(=N)NCCC[C@H](NC(=O)[C@H](CC(C)C)NC(=O)NNC(=O)[C@H](Cc1ccccc1)NC(=O)[C@@H](NC(=O)[C@H](CC(N)=O)NC(=O)CN(C)C(=O)[C@@H](Cc1ccc(O)cc1)NC(C)=O)[C@@H](C)O)C(=O)N[C@@H](Cc1c[nH]c2ccccc12)C(N)=O

intracellular Ca ion level-increasing activity [specific activity to Metastin (1-54)] (relative to Metastin (1-54)): 1.4
B8: des(1)-Ac-[D-Tyr2,Thz3,Thr5,AzaGly7,Arg(Me)9,Trp10]MS10 (peptide)
peptide: Ac-[dY][Thz]NTF[azaGly]L[Arg(Me)]W-NH2
SMILES: CNC(=N)NCCC[C@H](NC(=O)[C@H](CC(C)C)NC(=O)NNC(=O)[C@H](Cc1ccccc1)NC(=O)[C@@H](NC(=O)[C@H](CC(N)=O)NC(=O)[C@@H]1CSCN1C(=O)[C@@H](Cc1ccc(O)cc1)NC(C)=O)[C@@H](C)O)C(=O)N[C@@H](Cc1c[nH]c2ccccc12)C(N)=O

intracellular Ca ion level-increasing activity [specific activity to Metastin (1-54)] (relative to Metastin (1-54)): 1.1
B9: des(1)-Ac-[D-Tyr2,Pic(2)3,Thr5,AzaGly7,Arg(Me)9,Trp10]MS10 (peptide)
peptide: Ac-[dY][Pip]NTF[azaGly]L[Arg(Me)]W-NH2
SMILES: CNC(=N)NCCC[C@H](NC(=O)[C@H](CC(C)C)NC(=O)NNC(=O)[C@H](Cc1ccccc1)NC(=O)[C@@H](NC(=O)[C@H](CC(N)=O)NC(=O)[C@@H]1CCCCN1C(=O)[C@@H](Cc1ccc(O)cc1)NC(C)=O)[C@@H](C)O)C(=O)N[C@@H](Cc1c[nH]c2ccccc12)C(N)=O

intracellular Ca ion level-increasing activity [specific activity to Metastin (1-54)] (relative to Metastin (1-54)): 2.7
B10: des(1)-Ac-[D-Tyr2,NMeAla3,Thr5,AzaGly7,Arg(Me)9,Trp10]MS10 (peptide)
peptide: Ac-[dY][NMeA]NTF[azaGly]L[Arg(Me)]W-NH2
SMILES: CNC(=N)NCCC[C@H](NC(=O)[C@H](CC(C)C)NC(=O)NNC(=O)[C@H](Cc1ccccc1)NC(=O)[C@@H](NC(=O)[C@H](CC(N)=O)NC(=O)[C@H](C)N(C)C(=O)[C@@H](Cc1ccc(O)cc1)NC(C)=O)[C@@H](C)O)C(=O)N[C@@H](Cc1c[nH]c2ccccc12)C(N)=O

The remaining lines, values behind:

B1: des(1)-Ac-[D-Tyr2,D-Trp3,Thr5,AzaGly7,D-Arg9,Trp10]MS10 (peptide)
peptide: Ac-[dY][dW]NTF[azaGly]L[dR]W-NH2
SMILES: CC(=O)N[C@H](Cc1ccc(O)cc1)C(=O)N[C@H](Cc1c[nH]c2ccccc12)C(=O)N[C@@H](CC(N)=O)C(=O)N[C@H](C(=O)N[C@@H](Cc1ccccc1)C(=O)NNC(=O)N[C@@H](CC(C)C)C(=O)N[C@H](CCCNC(=N)N)C(=O)N[C@@H](Cc1c[nH]c2ccccc12)C(N)=O)[C@@H](C)O
intracellular Ca ion level-increasing activity [specific activity to Metastin (1-54)] (relative to Metastin (1-54)): 12.8

B4: des(1)-Ac-[D-Tyr2,D-NMeAla3,Thr5,AzaGly7,Arg(Me)9,Trp10]MS10 (peptide)
peptide: Ac-[dY][dNMeA]NTF[azaGly]L[Arg(Me)]W-NH2
SMILES: CNC(=N)NCCC[C@H](NC(=O)[C@H](CC(C)C)NC(=O)NNC(=O)[C@H](Cc1ccccc1)NC(=O)[C@@H](NC(=O)[C@H](CC(N)=O)NC(=O)[C@@H](C)N(C)C(=O)[C@@H](Cc1ccc(O)cc1)NC(C)=O)[C@@H](C)O)C(=O)N[C@@H](Cc1c[nH]c2ccccc12)C(N)=O
intracellular Ca ion level-increasing activity [specific activity to Metastin (1-54)] (relative to Metastin (1-54)): 3.2

B5: des(1)-Ac-[D-Tyr2,Hyp3,Thr5,erythro-Ser(3Phenyl)6,AzaGly7,Arg(Me)9,Trp10]MS10 (peptide)
peptide: Ac-[dY][Hyp]NT[Phe(βS-OH)][azaGly]L[Arg(Me)]W-NH2
SMILES: CNC(=N)NCCC[C@H](NC(=O)[C@H](CC(C)C)NC(=O)NNC(=O)[C@@H](NC(=O)[C@@H](NC(=O)[C@H](CC(N)=O)NC(=O)[C@@H]1C[C@@H](O)CN1C(=O)[C@@H](Cc1ccc(O)cc1)NC(C)=O)[C@@H](C)O)[C@@H](O)c1ccccc1)C(=O)N[C@@H](Cc1c[nH]c2ccccc12)C(N)=O
intracellular Ca ion level-increasing activity [specific activity to Metastin (1-54)] (relative to Metastin (1-54)): 0.8

B6: des(1)-Ac-[D-Tyr2,D-Trp3,Alb4,Thr5,AzaGly7,Arg(Me)9,Trp10]MS10 (peptide)
peptide: Ac-[dY][dW][Dap(CONH2)]TF[azaGly]L[Arg(Me)]W-NH2
SMILES: CNC(=N)NCCC[C@H](NC(=O)[C@H](CC(C)C)NC(=O)NNC(=O)[C@H](Cc1ccccc1)NC(=O)[C@@H](NC(=O)[C@H](CNC(N)=O)NC(=O)[C@@H](Cc1c[nH]c2ccccc12)NC(=O)[C@@H](Cc1ccc(O)cc1)NC(C)=O)[C@@H](C)O)C(=O)N[C@@H](Cc1c[nH]c2ccccc12)C(N)=O
intracellular Ca ion level-increasing activity [specific activity to Metastin (1-54)] (relative to Metastin (1-54)): 1

B11: des(1)-Ac-[D-Tyr2,Hyp3,Nva4,Thr5,AzaGly7,Arg(Me)9,Trp10]MS10 (peptide)
peptide: Ac-[dY][Hyp][Nva]TF[azaGly]L[Arg(Me)]W-NH2
SMILES: CCC[C@H](NC(=O)[C@@H]1C[C@@H](O)CN1C(=O)[C@@H](Cc1ccc(O)cc1)NC(C)=O)C(=O)N[C@H](C(=O)N[C@@H](Cc1ccccc1)C(=O)NNC(=O)N[C@@H](CC(C)C)C(=O)N[C@@H](CCCNC(=N)NC)C(=O)N[C@@H](Cc1c[nH]c2ccccc12)C(N)=O)[C@@H](C)O
intracellular Ca ion level-increasing activity [specific activity to Metastin (1-54)] (relative to Metastin (1-54)): 1.2
